The text below walks through data of IntAct's records for PubMed 21946559.

Sequences and labels used below:
B1: Netrin-G2 (Homo sapiens), Q96CW9 (parent)
chain: MLHLLALFLHCLPLASGDYDICKSWVTTDEGPTWEFYACQPKVMRLKDYVKVKVEPSGITCGDPPERFCSHENPYLCSNECDASNPDLAHPPRLMFDKEEEGLATYWQSITWSRYPSPLEANITLSWNKTVELTDDVVMTFEYGRPTVMVLEKSLDNGRTWQPYQFYAEDCMEAFGMSARRARDMSSSSAHRVLCTEEYSRWAGSKKEKHVRFEVRDRFAIFAGPDLRNMDNLYTRLESAKGLKEFFTLTDLRMRLLRPALGGTYVQRENLYKYFYAISNIEVIGRCKCNLHANLCSMREGSLQCECEHNTTGPDCGKCKKNFRTRSWRAGSYLPLPHGSPNACATAGSFGNCECYGHSNRCSYIDFLNVVTCVSCKHNTRGQHCQHCRLGYYRNGSAELDDENVCIECNCNQIGSVHDRCNETGFCECREGAAGPKCDDCLPTHYWRQGCYPNVCDDDQLLCQNGGTCLQNQRCACPRGYTGVRCEQPRCDPADDDGGLDCDRAPGAAPRPATLLGCLLLLGLAARLGR
partner: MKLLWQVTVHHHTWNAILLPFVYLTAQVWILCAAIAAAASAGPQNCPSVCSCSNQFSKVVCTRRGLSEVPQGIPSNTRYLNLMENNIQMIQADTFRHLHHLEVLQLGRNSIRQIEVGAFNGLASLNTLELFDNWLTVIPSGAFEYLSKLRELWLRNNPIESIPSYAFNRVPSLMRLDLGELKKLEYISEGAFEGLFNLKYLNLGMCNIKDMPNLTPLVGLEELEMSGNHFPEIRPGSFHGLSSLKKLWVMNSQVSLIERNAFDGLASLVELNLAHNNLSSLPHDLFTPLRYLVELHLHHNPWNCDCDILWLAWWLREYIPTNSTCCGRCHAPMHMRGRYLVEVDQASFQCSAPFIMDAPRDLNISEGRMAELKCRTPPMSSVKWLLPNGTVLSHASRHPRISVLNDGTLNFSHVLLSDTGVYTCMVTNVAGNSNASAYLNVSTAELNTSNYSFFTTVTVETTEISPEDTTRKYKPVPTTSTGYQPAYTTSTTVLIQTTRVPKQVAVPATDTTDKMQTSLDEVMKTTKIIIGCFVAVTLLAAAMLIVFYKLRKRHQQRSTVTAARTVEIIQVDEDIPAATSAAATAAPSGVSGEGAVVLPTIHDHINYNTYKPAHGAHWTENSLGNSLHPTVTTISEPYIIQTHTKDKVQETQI
B2: Leucine-rich repeat-containing protein 4C (Homo sapiens), Q9HCJ2 (parent)
chain: MLNKMTLHPQQIMIGPRFNRALFDPLLVVLLALQLLVVAGLVRAQTCPSVCSCSNQFSKVICVRKNLREVPDGISTNTRLLNLHENQIQIIKVNSFKHLRHLEILQLSRNHIRTIEIGAFNGLANLNTLELFDNRLTTIPNGAFVYLSKLKELWLRNNPIESIPSYAFNRIPSLRRLDLGELKRLSYISEGAFEGLSNLRYLNLAMCNLREIPNLTPLIKLDELDLSGNHLSAIRPGSFQGLMHLQKLWMIQSQIQVIERNAFDNLQSLVEINLAHNNLTLLPHDLFTPLHHLERIHLHHNPWNCNCDILWLSWWIKDMAPSNTACCARCNTPPNLKGRYIGELDQNYFTCYAPVIVEPPADLNVTEGMAAELKCRASTSLTSVSWITPNGTVMTHGAYKVRIAVLSDGTLNFTNVTVQDTGMYTCMVSNSVGNTTASATLNVTAATTTPFSYFSTVTVETMEPSQDEARTTDNNVGPTPVVDWETTNVTTSLTPQSTRSTEKTFTIPVTDINSGIPGIDEVMKTTKIIIGCFVAITLMAAVMLVIFYKMRKQHHRQNHHAPTRTVEIINVDDEITGDTPMESHLPMPAIEHEHLNHYNSYKSPFNHTTTVNTINSIHSSVHEPLLIRMNSKDNVQETQI
partner: B1 chain
B3: Netrin-G2 (Homo sapiens), Q96CW9 (parent)
chain: B1 chain
partner: B2 chain
B4: Leucine-rich repeat-containing protein 4 (Homo sapiens), Q9HBW1 (parent)
chain: B1 partner
partner: B1 chain
B5: Netrin-G1 (Homo sapiens), Q9Y2I2 (parent)
chain: MYLSRFLSIHALWVTVSSVMQPYPLVWGHYDLCKTQIYTEEGKVWDYMACQPESTDMTKYLKVKLDPPDITCGDPPETFCAMGNPYMCNNECDASTPELAHPPELMFDFEGRHPSTFWQSATWKEYPKPLQVNITLSWSKTIELTDNIVITFESGRPDQMILEKSLDYGRTWQPYQYYATDCLDAFHMDPKSVKDLSQHTVLEIICTEEYSTGYTTNSKIIHFEIKDRFAFFAGPRLRNMASLYGQLDTTKKLRDFFTVTDLRIRLLRPAVGEIFVDELHLARYFYAISDIKVRGRCKCNLHATVCVYDNSKLTCECEHNTTGPDCGKCKKNYQGRPWSPGSYLPIPKGTANTCIPSISSIGNCECFGHSNRCSYIDLLNTVICVSCKHNTRGQHCELCRLGYFRNASAQLDDENVCIECYCNPLGSIHDRCNGSGFCECKTGTTGPKCDECLPGNSWHYGCQPNVCDNELLHCQNGGTCHNNVRCLCPAAYTGILCEKLRCEEAGSCGSDSGQGAPPHGSPALLLLTTLLGTASPLVF
partner: B1 partner

The first test covers variants of B1. The following applies: with lrrc4_human LRRC4, Q9HBW1.
As to MLHLLALFLHCLPLASGDYDICKSWVTTDEGPTWEFYACQPKVMRLKDYVKVKVEPSGITCGDPPERFCSHENAYLCSNECDASNPDLAHPPRLMFDKEEEGLATYWQSITWSRYPSPLEANITLSWNKTVELTDDVVMTFEYGRPTVMVLEKSLDNGRTWQPYQFYAEDCMEAFGMSARRARDMSSSSAHRVLCTEEYSRWAGSKKEKHVRFEVRDRFAIFAGPDLRNMDNLYTRLESAKGLKEFFTLTDLRMRLLRPALGGTYVQRENLYKYFYAISNIEVIGRCKCNLHANLCSMREGSLQCECEHNTTGPDCGKCKKNFRTRSWRAGSYLPLPHGSPNACATAGSFGNCECYGHSNRCSYIDFLNVVTCVSCKHNTRGQHCQHCRLGYYRNGSAELDDENVCIECNCNQIGSVHDRCNETGFCECREGAAGPKCDDCLPTHYWRQGCYPNVCDDDQLLCQNGGTCLQNQRCACPRGYTGVRCEQPRCDPADDDGGLDCDRAPGAAPRPATLLGCLLLLGLAARLGR [P74A], the “effect of a mutation on the interaction” value is “disrupting interaction”.

Consider MLHLLALFLHCLPLASGDYDICKSWVTTDEGPTWEFYACQPKVMRLKDYVKVKVEPSGITCGDPPERFCSHENPTLCSNECDASNPDLAHPPRLMFDKEEEGLATYWQSITWSRYPSPLEANITLSWNKTVELTDDVVMTFEYGRPTVMVLEKSLDNGRTWQPYQFYAEDCMEAFGMSARRARDMSSSSAHRVLCTEEYSRWAGSKKEKHVRFEVRDRFAIFAGPDLRNMDNLYTRLESAKGLKEFFTLTDLRMRLLRPALGGTYVQRENLYKYFYAISNIEVIGRCKCNLHANLCSMREGSLQCECEHNTTGPDCGKCKKNFRTRSWRAGSYLPLPHGSPNACATAGSFGNCECYGHSNRCSYIDFLNVVTCVSCKHNTRGQHCQHCRLGYYRNGSAELDDENVCIECNCNQIGSVHDRCNETGFCECREGAAGPKCDDCLPTHYWRQGCYPNVCDDDQLLCQNGGTCLQNQRCACPRGYTGVRCEQPRCDPADDDGGLDCDRAPGAAPRPATLLGCLLLLGLAARLGR [Y75T], for which the “effect of a mutation on the interaction” value is “disrupting interaction”.

The variants in another test derive from B2. Particulars: with ntng2_human NTNG2, Q96CW9.
As to A205T, the “effect of a mutation on the interaction” value is “disrupting interaction”.

In another test the parent is B3. Particulars: with lrc4c_human LRRC4C, Q9HCJ2.
Consider MLHLLALFLHCLPLASGDYDICKSWVTTDEGPTWEFYACQPKVMRLKDYVKVKVEPSGITCGDPPERFCSHENPTLCSNECDASNPDLAHPPRLMFDKEEEGLATYWQSITWSRYPSPLEANITLSWNKTVELTDDVVMTFEYGRPTVMVLEKSLDNGRTWQPYQFYAEDCMEAFGMSARRARDMSSSSAHRVLCTEEYSRWAGSKKEKHVRFEVRDRFAIFAGPDLRNMDNLYTRLESAKGLKEFFTLTDLRMRLLRPALGGTYVQRENLYKYFYAISNIEVIGRCKCNLHANLCSMREGSLQCECEHNTTGPDCGKCKKNFRTRSWRAGSYLPLPHGSPNACATAGSFGNCECYGHSNRCSYIDFLNVVTCVSCKHNTRGQHCQHCRLGYYRNGSAELDDENVCIECNCNQIGSVHDRCNETGFCECREGAAGPKCDDCLPTHYWRQGCYPNVCDDDQLLCQNGGTCLQNQRCACPRGYTGVRCEQPRCDPADDDGGLDCDRAPGAAPRPATLLGCLLLLGLAARLGR [Y75T], for which the “effect of a mutation on the interaction” value is “disrupting interaction”. As to MLHLLALFLHCLPLASGDYDICKSWVTTDEGPTWEFYACQPKVMRLKDYVKVKVEPSGITCGDPPERFCSHENAYLCSNECDASNPDLAHPPRLMFDKEEEGLATYWQSITWSRYPSPLEANITLSWNKTVELTDDVVMTFEYGRPTVMVLEKSLDNGRTWQPYQFYAEDCMEAFGMSARRARDMSSSSAHRVLCTEEYSRWAGSKKEKHVRFEVRDRFAIFAGPDLRNMDNLYTRLESAKGLKEFFTLTDLRMRLLRPALGGTYVQRENLYKYFYAISNIEVIGRCKCNLHANLCSMREGSLQCECEHNTTGPDCGKCKKNFRTRSWRAGSYLPLPHGSPNACATAGSFGNCECYGHSNRCSYIDFLNVVTCVSCKHNTRGQHCQHCRLGYYRNGSAELDDENVCIECNCNQIGSVHDRCNETGFCECREGAAGPKCDDCLPTHYWRQGCYPNVCDDDQLLCQNGGTCLQNQRCACPRGYTGVRCEQPRCDPADDDGGLDCDRAPGAAPRPATLLGCLLLLGLAARLGR [P74A], the “effect of a mutation on the interaction” value is given as “disrupting interaction”.

A further test covers variants of B4. The following applies: with ntng2_human NTNG2, Q96CW9.
In the case of G204T, the “effect of a mutation on the interaction” value is listed as “disrupting interaction”.

The variants in a further test derive from B5. Particulars: with lrrc4_human LRRC4, Q9HBW1.
Take MYLSRFLSIHALWVTVSSVMQPYPLVWGHYDLCKTQIYTEEGKVWDYMACQPESTDMTKYLKVKLDPPDITCGDPPETFCAMGNAYMCNNECDASTPELAHPPELMFDFEGRHPSTFWQSATWKEYPKPLQVNITLSWSKTIELTDNIVITFESGRPDQMILEKSLDYGRTWQPYQYYATDCLDAFHMDPKSVKDLSQHTVLEIICTEEYSTGYTTNSKIIHFEIKDRFAFFAGPRLRNMASLYGQLDTTKKLRDFFTVTDLRIRLLRPAVGEIFVDELHLARYFYAISDIKVRGRCKCNLHATVCVYDNSKLTCECEHNTTGPDCGKCKKNYQGRPWSPGSYLPIPKGTANTCIPSISSIGNCECFGHSNRCSYIDLLNTVICVSCKHNTRGQHCELCRLGYFRNASAQLDDENVCIECYCNPLGSIHDRCNGSGFCECKTGTTGPKCDECLPGNSWHYGCQPNVCDNELLHCQNGGTCHNNVRCLCPAAYTGILCEKLRCEEAGSCGSDSGQGAPPHGSPALLLLTTLLGTASPLVF [P85A]: the “effect of a mutation on the interaction” value is reported as “disrupting interaction”. For the variant MYLSRFLSIHALWVTVSSVMQPYPLVWGHYDLCKTQIYTEEGKVWDYMACQPESTDMTKYLKVKLDPPDITCGDPPETFCAMGNPTMCNNECDASTPELAHPPELMFDFEGRHPSTFWQSATWKEYPKPLQVNITLSWSKTIELTDNIVITFESGRPDQMILEKSLDYGRTWQPYQYYATDCLDAFHMDPKSVKDLSQHTVLEIICTEEYSTGYTTNSKIIHFEIKDRFAFFAGPRLRNMASLYGQLDTTKKLRDFFTVTDLRIRLLRPAVGEIFVDELHLARYFYAISDIKVRGRCKCNLHATVCVYDNSKLTCECEHNTTGPDCGKCKKNYQGRPWSPGSYLPIPKGTANTCIPSISSIGNCECFGHSNRCSYIDLLNTVICVSCKHNTRGQHCELCRLGYFRNASAQLDDENVCIECYCNPLGSIHDRCNGSGFCECKTGTTGPKCDECLPGNSWHYGCQPNVCDNELLHCQNGGTCHNNVRCLCPAAYTGILCEKLRCEEAGSCGSDSGQGAPPHGSPALLLLTTLLGTASPLVF [Y86T], the “effect of a mutation on the interaction” value was “disrupting interaction”.
